From the supplement of paper PMC10724198
± gives the standard deviation of the averaged measurements.

How the values were obtained:
Saccharomyces cerevisiae [1] = assay: protein stability index of tFT-peptide fusion (C-terminal peptide) (PSI (0-1 scale)); higher = more stable (slower turnover)
Method: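 MPS profiling in S. cerevisiae of the tFT-X12 degron library: putative degron peptides plus stable controls, 12 aa, fused to the C-terminus of a sfGFP-mCherry timer. Cells are FACS-sorted into 8 mCherry/sfGFP bins and deep-sequenced. PSI runs from 0 (unstable) to 1 (stable). Backgrounds are wild type, das1Δ and doa10Δ at 30 °C, and wild type, das1Δ, cdc34-1 and cdc53-1 at 37 °C; 2-3 technical replicates each.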

Saccharomyces cerevisiae [2] = assay: as above; conditions: genetic background: wild type; temperature: 30 C
[3] = genetic background: cdc34-1, temperature: 37 C
[4] = genetic background: cdc53-1, temperature: 37 C
[5] = genetic background: das1 deletion, temperature: 30 C
[6] = genetic background: das1 deletion, temperature: 37 C
[7] = genetic background: doa10 deletion, temperature: 30 C
[8] = genetic background: wild type, temperature: 30 C
[9] = genetic background: wild type, temperature: 37 C
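Note: PSI is a weighted mean of sequencing reads over stability bins, variants kept only with over 10 reads, mCherry proximal and sfGFP distal, peptide attached via GGGS linker.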

Sequence | protein stability index (Saccharomyces cerevisiae [1]; [3]) | protein stability index (Saccharomyces cerevisiae [1]; [4]) | protein stability index (Saccharomyces cerevisiae [1]; [5]) | protein stability index (Saccharomyces cerevisiae [1]; [6]) | protein stability index (Saccharomyces cerevisiae [1]; [7]) | protein stability index (Saccharomyces cerevisiae [1]; [8]) | protein stability index (Saccharomyces cerevisiae [1]; [9]) | protein stability index (Saccharomyces cerevisiae [2])
ALRLVAFFWVPG | 0.482 ± 0.063 | 0.536 ± 0.038 | 0.427 ± 0.025 | 0.5392 ± 0.0037 | 0.415 ± 0.035 | 0.4099 ± 0.0011 | 0.5126 ± 0.0048 | 0.422 ± 0.0081
ALTLSYAIKLKV | 0.36 ± 0.02 | 0.395 ± 0.022 | 0.313 ± 0.032 | 0.4594 ± 0.00077 | 0.248 ± 0.0066 | 0.265 ± 0.025 | 0.401 ± 0.027 | 0.372 ± 0.014
AMFQLRLLVGSV | 0.489 ± 0.036 | 0.508 ± 0.018 | 0.386 ± 0.037 | 0.5436 ± 0.0049 | 0.36 ± 0.016 | 0.391 ± 0.0056 | 0.5001 ± 0.0027 | 0.499 ± 0.033
APASFRVLISAF | 0.021 ± 0.0017 | 0.0368 ± 0.0029 | 0.118 ± 0.035 | 0.102 ± 0.013 | 0.0642 ± 0.012 | 0.0969 ± 0.034 | 0.0646 ± 0.018 | 0.136 ± 0.0083
ARFFFFCVGILI | 0.379 ± 0.0081 | 0.474 ± 0.067 | 0.339 ± 0.066 | 0.503 ± 0.046 | 0.295 ± 0.035 | 0.354 ± 0.017 | 0.4581 ± 0.0031 | 0.378 ± 0.035
ARKWVAVTVTLW | 0.137 ± 0.038 | 0.232 ± 0.013 | 0.187 ± 0.036 | 0.3519 ± 0.00085 | 0.148 ± 0.021 | 0.189 ± 0.029 | 0.317 ± 0.011 | 0.267 ± 0.043
ARVSLSFVSVSA | 0.4168 ± 0.004 | 0.442 ± 0.012 | 0.279 ± 0.03 | 0.494 ± 0.007 | 0.225 ± 0.0052 | 0.281 ± 0.014 | 0.4672 ± 0.0023 | 0.404 ± 0.015
ARWNTDRRRRQL | 0.6089 ± 0.0047 | 0.711 ± 0.024 | 0.688 ± 0.045 | 0.7022 ± 0.0017 | 0.236 ± 0.0035 | 0.253 ± 0.034 | 0.502 ± 0.025 | 0.421 ± 0.017
ASIEVGNVIKQM | 0.672 ± 0.051 | 0.7189 ± 0.0025 | 0.627 ± 0.036 | 0.7202 ± 0.0061 | 0.375 ± 0.0075 | 0.43 ± 0.019 | 0.632 ± 0.027 | 0.518 ± 0.037
ASSSPAPYAPYT | 0.7006 ± 0.0052 | 0.7559 ± 0.0043 | 0.647 ± 0.031 | 0.76 ± 0.029 | 0.634 ± 0.03 | 0.642 ± 0.025 | 0.744 ± 0.017 | 0.635 ± 0.23
ATAVMILCFRWC | 0.392 ± 0.0051 | 0.492 ± 0.018 | 0.329 ± 0.041 | 0.526 ± 0.013 | 0.2872 ± 0.0016 | 0.308 ± 0.015 | 0.4711 ± 0.00051 | 0.419 ± 0.053
AVLAALVSTLAG | 0.548 ± 0.019 | 0.565 ± 0.0091 | 0.383 ± 0.024 | 0.5888 ± 0.0053 | 0.349 ± 0.013 | 0.406 ± 0.028 | 0.553 ± 0.026 | 0.4785 ± 0.00075
AVPTSPYSLIVY | 0.524 ± 0.0083 | 0.495 ± 0.088 | 0.367 ± 0.0063 | 0.54146 ± 0.00044 | 0.326 ± 0.011 | 0.337 ± 0.021 | 0.485 ± 0.011 | 0.476 ± 0.022
AWGSWTLCVAVH | 0.0257 ± 0.0088 | 0.0323 ± 0.0061 | 0.0888 ± 0.043 | 0.0713 ± 0.01 | 0.07331 ± 0.00055 | 0.089 ± 0.027 | 0.0602 ± 0.015 | 0.151 ± 0.011
AWWMALAVPIVA | 0.02 ± 0.0012 | 0.0219 ± 0.0076 | 0.103 ± 0.025 | 0.0676 ± 0.013 | 0.0817 ± 0.02 | 0.1 ± 0.023 | 0.062 ± 0.00098 | 0.0514 ± 0.042
CCFVGLRYVLWV | 0.431 ± 0.022 | 0.5 ± 0.018 | 0.345 ± 0.029 | 0.531 ± 0.0061 | 0.278 ± 0.012 | 0.288 ± 0.0082 | 0.462 ± 0.015 | 0.365 ± 0.009
CCLGVIASFIVW | 0.247 ± 0.01 | 0.435 ± 0.15 | 0.284 ± 0.036 | 0.455 ± 0.024 | 0.236 ± 0.0065 | 0.254 ± 0.036 | 0.408 ± 0.0049 | 0.3579 ± 0.0021
CFLLSYRWVFLC | 0.0855 ± 0.0055 | 0.0678 ± 0.0095 | 0.177 ± 0.033 | 0.2381 ± 0.0016 | 0.0531 ± 0.0053 | 0.0411 ± 0.018 | 0.0605 ± 0.03 | 0.0949 ± 0.027
CFSIPLVILNVL | 0.468 ± 0.018 | 0.496 ± 0.02 | 0.431 ± 0.018 | 0.531 ± 0.025 | 0.335 ± 0.0063 | 0.338 ± 0.02 | 0.455 ± 0.0097 | 0.413 ± 0.0076
CFWLLSSLLLFL | 0.462 ± 0.016 | 0.474 ± 0.0089 | 0.429 ± 0.017 | 0.5398 ± 0.0016 | 0.492 ± 0.0067 | 0.416 ± 0.034 | 0.514 ± 0.0075 | 0.453 ± 0.019

Sequence | protein stability index (Saccharomyces cerevisiae [1]; [3]) | protein stability index (Saccharomyces cerevisiae [1]; [4]) | protein stability index (Saccharomyces cerevisiae [1]; [5]) | protein stability index (Saccharomyces cerevisiae [1]; [6]) | protein stability index (Saccharomyces cerevisiae [1]; [7]) | protein stability index (Saccharomyces cerevisiae [1]; [8]) | protein stability index (Saccharomyces cerevisiae [1]; [9]) | protein stability index (Saccharomyces cerevisiae [2])
CFYVGFLGYFVF | 0.447 ± 0.026 | 0.556 ± 0.005 | 0.357 ± 0.04 | 0.55 ± 0.027 | 0.342 ± 0.0064 | 0.367 ± 0.011 | 0.505 ± 0.014 | 0.42 ± 0.0044
CGLGKVLGWRWV | 0.643 ± 0.036 | 0.7267 ± 0.002 | 0.64 ± 0.015 | 0.745 ± 0.023 | 0.185 ± 0.0019 | 0.227 ± 0.01 | 0.5193 ± 0.0018 | 0.4241 ± 0.0014
CGPLLVTLVLSM | 0.445 ± 0.045 | 0.423 ± 0.02 | 0.305 ± 0.032 | 0.5011 ± 0.0028 | 0.304 ± 0.01 | 0.306 ± 0.018 | 0.476 ± 0.012 | 0.404 ± 0.0049
CLAWWLGRVWVC | 0.184 ± 0.018 | 0.225 ± 0.0095 | 0.219 ± 0.027 | 0.364 ± 0.0011 | 0.115 ± 0.011 | 0.0919 ± 0.017 | 0.105 ± 0.0053 | 0.141 ± 0.006
CLILGLFSLIFL | 0.525 ± 0.061 | 0.5644 ± 0.00097 | 0.452 ± 0.018 | 0.561 ± 0.011 | 0.4758 ± 0.0028 | 0.441 ± 0.016 | 0.531 ± 0.056 | 0.482 ± 0.027
CLRVSFFFWLFA | 0.465 ± 0.017 | 0.562 ± 0.0068 | 0.392 ± 0.041 | 0.553 ± 0.0073 | 0.224 ± 0.0084 | 0.263 ± 0.017 | 0.424 ± 0.0084 | 0.351 ± 0.016
CRFYIRITRRYS | 0.491 ± 0.017 | 0.576 ± 0.024 | 0.541 ± 0.041 | 0.584 ± 0.032 | 0.156 ± 0.025 | 0.132 ± 0.033 | 0.255 ± 0.031 | 0.21 ± 0.025
CRLLVFGLCVGA | 0.292 ± 0.012 | 0.332 ± 0.0083 | 0.228 ± 0.046 | 0.419 ± 0.0084 | 0.189 ± 0.0062 | 0.237 ± 0.022 | 0.39 ± 0.0056 | 0.342 ± 0.014
CRWHLRIVRGLM | 0.5609 ± 0.0048 | 0.665 ± 0.00068 | 0.593 ± 0.01 | 0.6603 ± 0.0027 | 0.29 ± 0.019 | 0.276 ± 0.056 | 0.415 ± 0.019 | 0.377 ± 0.0026
CSKGLSILLLLL | 0.636 ± 0.055 | 0.672 ± 0.028 | 0.469 ± 0.021 | 0.634 ± 0.028 | 0.301 ± 0.018 | 0.321 ± 0.034 | 0.53 ± 0.012 | 0.41 ± 0.0064
CSRDVFLFIKFL | 0.391 ± 0.023 | 0.544 ± 0.018 | 0.457 ± 0.0096 | 0.5679 ± 0.002 | 0.0736 ± 0.035 | 0.075 ± 0.019 | 0.127 ± 0.037 | 0.132 ± 0.02
CSSLIMIITCVN | 0.2613 ± 0.00064 | 0.289 ± 0.013 | 0.244 ± 0.031 | 0.4 ± 0.017 | 0.0883 ± 0.023 | 0.115 ± 0.0091 | 0.122 ± 0.027 | 0.199 ± 0.046
CTESVYIIRFML | 0.638 ± 0.045 | 0.661 ± 0.025 | 0.568 ± 0.025 | 0.662 ± 0.02 | 0.222 ± 0.003 | 0.253 ± 0.035 | 0.466 ± 0.029 | 0.341 ± 0.084
CVEACVWYNAGL | 0.745 ± 0.046 | 0.782 ± 0.024 | 0.662 ± 0.024 | 0.774 ± 0.027 | 0.6577 ± 0.004 | 0.687 ± 0.031 | 0.764 ± 0.015 | 0.7382 ± 0.0062
CVILVVISGLLG | 0.166 ± 0.035 | 0.315 ± 0.039 | 0.199 ± 0.039 | 0.3938 ± 0.0035 | 0.178 ± 0.013 | 0.217 ± 0.03 | 0.3491 ± 0.0021 | 0.345 ± 0.078
CVPGPRWWYHSA | 0.671 ± 0.031 | 0.755 ± 0.015 | 0.685 ± 0.031 | 0.775 ± 0.011 | 0.233 ± 0.0045 | 0.272 ± 0.019 | 0.53465 ± 0.00023 | 0.446 ± 0.0059
CWFGLVSLFWVV | 0.49 ± 0.051 | 0.52 ± 0.012 | 0.421 ± 0.04 | 0.576 ± 0.0068 | 0.275 ± 0.0067 | 0.299 ± 0.015 | 0.434 ± 0.016 | 0.429
DAIVLGSVVVCR | 0.515 ± 0.032 | 0.563 ± 0.017 | 0.393 ± 0.029 | 0.5719 ± 0.0051 | 0.342 ± 0.0065 | 0.39 ± 0.038 | 0.55 ± 0.013 | 0.414 ± 0.026
DCRFIIFYCVMV | 0.48 ± 0.022 | 0.5 ± 0.019 | 0.434 ± 0.053 | 0.509 ± 0.019 | 0.454 ± 0.06 | 0.454 ± 0.037 | 0.506 ± 0.019 | 0.457 ± 0.029
